From patent publication US20120087858A1 (AbbVie / Abbott, published 2012)

Tests used:
Recombinant Human β-NGF [1] = target: T1, Recombinant Human β-NGF (human, UniProt P01138 122-241); assay: Biacore SPR
T1 construct: Bought reagent; also called huNGF
Method: (§1) The BIACORE assay (Biacore, Inc, Piscataway, N.J.) determines the affinity of antibodies or DVD-Ig with kinetic measurements of on-rate and off-rate constants. Binding of antibodies or DVD-Ig to a target antigen (for example, a purified recombinant target antigen) is determined by surface plasmon resonance-based measurements with a Biacore® 1000 or 3000 instrument (Biacore® AB, Uppsala, Sweden) using running HBS-EP (10 mM HEPES [pH 7.4], 150 mM NaCl, 3 mM EDTA, and 0.005% surfactant P20) at 25° C. All chemicals are obtained from Biacore® AB (Uppsala, Sweden) or otherwise from a different source as described in the text. For example, approximately 5000 RU of goat anti-mouse IgG, (Fcγ), fragment specific polyclonal antibody (Pierce Biotechnology Inc, Rockford, Ill.) diluted in 10 mM sodium acetate (pH 4.5) is directly immobilized across a CMS research grade biosensor chip using a standard amine coupling kit according to manufacturer's instructions and procedures at 25 μg/ml. Unreacted moieties on the biosensor surface are blocked with ethanolamine. Modified carboxymethyl dextran surface in flowcell 2 and 4 is used as a reaction surface. Unmodified carboxymethyl dextran without goat anti-mouse IgG in flow cell 1 and 3 is used as the reference surface. For kinetic analysis, rate equations derived from the 1:1 Langmuir binding model are fitted simultaneously to association and dissociation phases of all eight injections (using global fit analysis) with the use of Biaevaluation 4.0.1 software. Purified antibodies or DVD-Ig are diluted in HEPES-buffered saline for capture across goat anti-mouse IgG specific reaction surfaces. Antibodies or DVD-Ig to be captured as a ligand (25 μg/ml) are injected over reaction matrices at a flow rate of 5 μl/min. The association and dissociation rate constants, kₒₙ (M⁻¹s⁻) and koff(s⁻¹) are determined under a continuous flow rate of 25 μl/min. Rate constants are derived by making kinetic binding measurements at different antigen concentrations ranging from 10-200 nM. The equilibrium dissociation constant (M) of the reaction between antibodies or DVD-Igs and the target antigen is then calculated from the kinetic rate constants by the following formula: KD=koff/kₒₙ. Binding is recorded as a function of time and kinetic rate constants are calculated.

Recombinant Human β-NGF [2] = target: T1, Recombinant Human β-NGF; assay: cell-based or functional assay
[3] = target: T2, Recombinant Human TNF-α/TNFSF1A (human, UniProt P01375 77-233); assay: Biacore SPR
T2 construct: Bought reagent; The same protein name (huTNFα) is used in the L929 neutralization assay; also called huTNFα
T2 sequence (P01375 77-233 limits assumed): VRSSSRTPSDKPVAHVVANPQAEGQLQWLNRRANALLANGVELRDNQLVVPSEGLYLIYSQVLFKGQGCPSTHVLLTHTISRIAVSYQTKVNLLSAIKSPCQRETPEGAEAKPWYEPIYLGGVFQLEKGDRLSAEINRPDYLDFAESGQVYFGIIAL
Method: as §1

Recombinant Human SOST = target: T3, Recombinant Human SOST (human, UniProt Q9BQB4 24-213); assay: Biacore SPR
T3 construct: Biacore reagent from R&D Systems; the Wnt-1/luciferase assay used Human Sclerostin (Abbott PR-1261069); also called Sclerostin; Human Sclerostin
T3 sequence (looked up): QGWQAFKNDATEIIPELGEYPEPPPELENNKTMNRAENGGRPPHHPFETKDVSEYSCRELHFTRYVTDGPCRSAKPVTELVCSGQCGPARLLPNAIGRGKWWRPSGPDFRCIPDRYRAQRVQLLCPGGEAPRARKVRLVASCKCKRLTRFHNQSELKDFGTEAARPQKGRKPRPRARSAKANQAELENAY
Method: as §1

[4] = target: T2, Recombinant Human TNF-α/TNFSF1A; assay: cell-based or functional assay

T1 sequence (P01138 122-241 limits assumed): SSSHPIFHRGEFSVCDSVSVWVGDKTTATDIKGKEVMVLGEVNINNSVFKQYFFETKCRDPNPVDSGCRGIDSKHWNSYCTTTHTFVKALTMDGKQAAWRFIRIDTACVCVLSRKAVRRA

B1: AB020 (antibody, V domains shown)
VH: QVQLQESGPGLVKPSETLSLTCTVSGFSLIGYDLNWIRQPPGKGLEWIGIIWGDGTTDYNSAVKSRVTISKDTSKNQFSLKLSSVTAADTAVYYCARGGYWYATSYYFDYWGQGTLVTVSS
VL: DIQMTQSPSSLSASVGDRVTITCRASQSISNNLNWYQQKPGKAPKLLIYYTSRFHSGVPSRFSGSGSGTDFTFTISSLQPEDIATYYCQQEHTLPYTFGQGTKLEIKR
notes: Parent antibody; also called NGF parent antibody
In the case of B1, the Kd (Recombinant Human β-NGF [1]) is reported as 0.00673 nM, the koff (Recombinant Human β-NGF [1]) is reported as 4.08e-06 s⁻¹ and the kon (Recombinant Human β-NGF [1]) is reported as 606000 M⁻¹ s⁻¹. For the same binder, the “NGF Inhibition Assay EC50 (TF-1 cell proliferation)” value (“NGF Inhibition Assay EC50” for short) (Recombinant Human β-NGF [2]) was 0.003 nM.

B2: DVD1525 (bispecific antibody, human IgG1, kappa)
heavy: not shown
light: EIVMTQSPATLSVSPGERATLSCRASQSVSSNLAWYQQKPGQAPRLLIHGASIRATGLPARFSGSGSGTEFTLTISSLQSEDFAVYYCQQYNYWWTFGQGTKVEIKRTVAAPDVQMIQSPSSLSASLGDIVTMTCQASQGTSINLNWFQQKPGKAPKLLIYGSSNLEDGVPSRFSGSRYGTDFTLTISSLEDEDLATYFCLQHSYLPYTFGGGTKLEIKRTVAAPSVFIFPPSDEQLKSGTASVVCLLNNFYPREAKVQWKVDNALQSGNSQESVTEQDSKDSTYSLSSTLTLSKADYEKHKVYACEVTHQGLSSPVTKSFNRGEC
notes: DVD-Ig; linker set 3; also called DVD1525H; DVD1525L
B2 gave a Kd [3] of 0.015 nM, a koff [3] of 3e-05 s⁻¹ and a kon [3] of 2e+06 M⁻¹ s⁻¹. It also gave a Kd (Recombinant Human SOST) of 9.8 nM, a koff (Recombinant Human SOST) of 0.00089 s⁻¹ and a kon (Recombinant Human SOST) of 91000 M⁻¹ s⁻¹. For the same binder, the “TNFα Neutralization Assay EC50 (L929 cells)” value (shortened to “TNFα Neutralization Assay EC50”) [4] was 0.0029 nM.

B3: DVD1460 (bispecific antibody, human IgG1, kappa)
heavy: not shown
light: DIQMTQSPSSLSASVGDRVTITCRASQSISNNLNWYQQKPGKAPKLLIYYTSRFHSGVPSRFSGSGSGTDFTFTISSLQPEDIATYYCQQEHTLPYTFGQGTKLEIKRTVAAPSVFIFPPDIVMTQSHKFMSTTVGDRVSITCKASQAVSSAVAWYQQKPGQSPKLLIYWASTRHTGVPDRFTGSGSVTDFTLTIHNLQAEDLALYYCQQHYSTPFTFGSGTKLEIKRTVAAPSVFIFPPSDEQLKSGTASVVCLLNNFYPREAKVQWKVDNALQSGNSQESVTEQDSKDSTYSLSSTLTLSKADYEKHKVYACEVTHQGLSSPVTKSFNRGEC
notes: DVD-Ig; linker set 2; also called DVD1460H; DVD1460L
B3 gave a Kd [3] of 0.26 nM, a koff [3] of 3.6e-05 s⁻¹ and a kon [3] of 140000 M⁻¹ s⁻¹. It also gave a Kd (Recombinant Human β-NGF [1]) of 0.00085 nM, a koff (Recombinant Human β-NGF [1]) of 2e-06 s⁻¹ and a kon (Recombinant Human β-NGF [1]) of 2.3e+06 M⁻¹ s⁻¹. The “NGF Inhibition Assay EC50” value (Recombinant Human β-NGF [2]) was 1.7 nM.

B4: DVD1478 (bispecific antibody, human IgG1, kappa)
heavy: not shown
light: DIQMTQSPSSLSASVGDRVTITCRASQSISNNLNWYQQKPGKAPKLLIYYTSRFHSGVPSRFSGSGSGTDFTFTISSLQPEDIATYYCQQEHTLPYTFGQGTKLEIKRTVAAPSVFIFPPDIQMTQSPSSLSASVGDRVTITCRASQGIRIDLGWYQQKPGKAPKRLIYAASTLQSGVPSRFSGSGSGTEFIFTISSLQPEDFASYYCLQHKSYPLTFGGGTKVEIKRTVAAPSVFIFPPSDEQLKSGTASVVCLLNNFYPREAKVQWKVDNALQSGNSQESVTEQDSKDSTYSLSSTLTLSKADYEKHKVYACEVTHQGLSSPVTKSFNRGEC
notes: DVD-Ig; linker set 2; also called DVD1478H; DVD1478L
Binder B4 has a Kd [3] of 0.1 nM, a koff [3] of 1.5e-05 s⁻¹ and a kon [3] of 150000 M⁻¹ s⁻¹. It also gave a Kd (Recombinant Human β-NGF [1]) of 0.0025 nM, a koff (Recombinant Human β-NGF [1]) of 6e-06 s⁻¹ and a kon (Recombinant Human β-NGF [1]) of 2.4e+06 M⁻¹ s⁻¹. The “TNFα Neutralization Assay EC50” value [4] was 0.329 nM and the “NGF Inhibition Assay EC50” value (Recombinant Human β-NGF [2]) was 0.019 nM.

B5: DVD1495 (bispecific antibody, human IgG1, kappa)
heavy: not shown
light: DIVMTQSHKFMSTTVGDRVSITCKASQAVSSAVAWYQQKPGQSPKLLIYWASTRHTGVPDRFTGSGSVTDFTLTIHNLQAEDLALYYCQQHYSTPFTFGSGTKLEIKRTVAAPDVQMIQSPSSLSASLGDIVTMTCQASQGTSINLNWFQQKPGKAPKLLIYGSSNLEDGVPSRFSGSRYGTDFTLTISSLEDEDLATYFCLQHSYLPYTFGGGTKLEIKRTVAAPSVFIFPPSDEQLKSGTASVVCLLNNFYPREAKVQWKVDNALQSGNSQESVTEQDSKDSTYSLSSTLTLSKADYEKHKVYACEVTHQGLSSPVTKSFNRGEC
notes: DVD-Ig; linker set 3; also called DVD1495H; DVD1495L
B5 gave a Kd [3] of 0.021 nM, a koff [3] of 5.4e-05 s⁻¹ and a kon [3] of 2.5e+06 M⁻¹ s⁻¹. For the same binder, the Kd (Recombinant Human SOST) was 22 nM, the koff (Recombinant Human SOST) was 0.00095 s⁻¹ and the kon (Recombinant Human SOST) was 44000 M⁻¹ s⁻¹. For the same binder, the “TNFα Neutralization Assay EC50” value [4] was 0.0038 nM.

B6: DVD1502 (bispecific antibody, human IgG1, kappa)
heavy: not shown
light: DIQMTQSPSSLSASVGDRVTITCRASQSISNNLNWYQQKPGKAPKLLIYYTSRFHSGVPSRFSGSGSGTDFTFTISSLQPEDIATYYCQQEHTLPYTFGQGTKLEIKRTVAAPDIVMTQSHKFMSTTVGDRVSITCKASQAVSSAVAWYQQKPGQSPKLLIYWASTRHTGVPDRFTGSGSVTDFTLTIHNLQAEDLALYYCQQHYSTPFTFGSGTKLEIKRTVAAPSVFIFPPSDEQLKSGTASVVCLLNNFYPREAKVQWKVDNALQSGNSQESVTEQDSKDSTYSLSSTLTLSKADYEKHKVYACEVTHQGLSSPVTKSFNRGEC
notes: DVD-Ig; linker set 3; also called DVD1502H; DVD1502L
For B6, the Kd [3] was 0.3 nM, the koff [3] was 5.5e-05 s⁻¹ and the kon [3] was 180000 M⁻¹ s⁻¹. The Kd (Recombinant Human β-NGF [1]) was less than 0.0004 nM, the koff (Recombinant Human β-NGF [1]) was less than 1e-06 s⁻¹ and the kon (Recombinant Human β-NGF [1]) was 2.5e+06 M⁻¹ s⁻¹. For the same binder, the “TNFα Neutralization Assay EC50” value [4] was 0.46 nM and the “NGF Inhibition Assay EC50” value (Recombinant Human β-NGF [2]) was 0.028 nM.

B7: DVD1454 (bispecific antibody, human IgG1, kappa)
heavy: not shown
light: DVQMIQSPSSLSASLGDIVTMTCQASQGTSINLNWFQQKPGKAPKLLIYGSSNLEDGVPSRFSGSRYGTDFTLTISSLEDEDLATYFCLQHSYLPYTFGGGTKLEIKRTVAAPSVFIFPPDIVMTQSHKFMSTTVGDRVSITCKASQAVSSAVAWYQQKPGQSPKLLIYWASTRHTGVPDRFTGSGSVTDFTLTIHNLQAEDLALYYCQQHYSTPFTFGSGTKLEIKRTVAAPSVFIFPPSDEQLKSGTASVVCLLNNFYPREAKVQWKVDNALQSGNSQESVTEQDSKDSTYSLSSTLTLSKADYEKHKVYACEVTHQGLSSPVTKSFNRGEC
notes: DVD-Ig; linker set 2; also called DVD1454H; DVD1454L
B7 showed a Kd [3] of 0.21 nM, a koff [3] of 4.9e-05 s⁻¹ and a kon [3] of 230000 M⁻¹ s⁻¹. It also gave a Kd (Recombinant Human SOST) of 0.084 nM, a koff (Recombinant Human SOST) of 0.00086 s⁻¹ and a kon (Recombinant Human SOST) of 1e+07 M⁻¹ s⁻¹. The “TNFα Neutralization Assay EC50” value [4] was 0.951 nM.

B8: DVD1517 (bispecific antibody, human IgG1, kappa)
heavy: not shown
light: DIQMTQSPSSLSASVGDRVTITCRASQGIRIDLGWYQQKPGKAPKRLIYAASTLQSGVPSRFSGSGSGTEFIFTISSLQPEDFASYYCLQHKSYPLTFGGGTKVEIKRTVAAPDVQMIQSPSSLSASLGDIVTMTCQASQGTSINLNWFQQKPGKAPKLLIYGSSNLEDGVPSRFSGSRYGTDFTLTISSLEDEDLATYFCLQHSYLPYTFGGGTKLEIKRTVAAPSVFIFPPSDEQLKSGTASVVCLLNNFYPREAKVQWKVDNALQSGNSQESVTEQDSKDSTYSLSSTLTLSKADYEKHKVYACEVTHQGLSSPVTKSFNRGEC
notes: DVD-Ig; linker set 3; also called DVD1517H; DVD1517L
Work on B8 yielded a Kd [3] of 0.018 nM, a koff [3] of 4.7e-05 s⁻¹ and a kon [3] of 2.6e+06 M⁻¹ s⁻¹. For the same binder, the Kd (Recombinant Human SOST) was 5.5 nM, the koff (Recombinant Human SOST) was 0.0005 s⁻¹ and the kon (Recombinant Human SOST) was 89000 M⁻¹ s⁻¹. For the same binder, the “TNFα Neutralization Assay EC50” value [4] was 0.0012 nM.

B9: DVD1483 (bispecific antibody, human IgG1, kappa)
heavy: not shown
light: EIVMTQSPATLSVSPGERATLSCRASQSVSSNLAWYQQKPGQAPRLLIHGASIRATGLPARFSGSGSGTEFTLTISSLQSEDFAVYYCQQYNYWWTFGQGTKVEIKRTVAAPSVFIFPPDVQMIQSPSSLSASLGDIVTMTCQASQGTSINLNWFQQKPGKAPKLLIYGSSNLEDGVPSRFSGSRYGTDFTLTISSLEDEDLATYFCLQHSYLPYTFGGGTKLEIKRTVAAPSVFIFPPSDEQLKSGTASVVCLLNNFYPREAKVQWKVDNALQSGNSQESVTEQDSKDSTYSLSSTLTLSKADYEKHKVYACEVTHQGLSSPVTKSFNRGEC
notes: DVD-Ig; linker set 2; also called DVD1483H; DVD1483L
B9 gave a Kd [3] of 0.012 nM, a koff [3] of 3.3e-05 s⁻¹ and a kon [3] of 2.8e+06 M⁻¹ s⁻¹. For the same binder, the Kd (Recombinant Human SOST) was 0.78 nM, the koff (Recombinant Human SOST) was 0.00083 s⁻¹ and the kon (Recombinant Human SOST) was 1.1e+06 M⁻¹ s⁻¹. The “TNFα Neutralization Assay EC50” value [4] was 0.012 nM.
